This note sets out measurements from patent publication US20200010516A1.

This assay addresses integrin αIIbβ3 on platelets of healthy donors (UniProt P08514). Description: cell-based or functional assay.

As for “^39SRAGK-^46RIPRGDMP-^66RYH (Rho wild-type) (from UniProt P30403 408-475) (ligand)”, the IC50, Platelet Aggregation was 83.2 nM.
